# B1: 211: XenoMax derived human anti-EGFRvIII antibody, from well 190D7 (antibody, V domains shown)
# VH: QVQLVESGGGVVQPGRSLRLSCVASGFTLSSYGMHWVRQAPGKGLEWVAVTSYDGSKKDYADSAKGRFTISRDNSKNTLYLQMNSLRAEDTAVYYCVSEGYCSSSSCYKYYYYGMDVWGQGTTVTVSS
# VL: DIVMTQSPLSLPVTPGEPASISCRSSQSLLYRNGNNYLDWYLQRPGQSPQLLIYLGSNRASGVPDRFSGSGSGTDFTLKISRVEAEDVGVYYCMQALQTPRTFGQGTKVEIK
# B2: 095: XenoMax derived human anti-EGFRvIII antibody (antibody, V domains shown)
# VH: QVQLQESGPFLVKPSQTLSLTCTVSGGSISSGGYYWSWIRQHPGKGLEWIGFIYYRGNTYYNPSLKSRVTISVDTSKNQFSLKLSSVTAADTAVYYCARDGYCSRTGCYGGWFDPWGQGTLVTVSP
# VL: DIVMTQTPLSSPVTLGQPASISCRSSQSLIHTDGNIYLSWLQQRPGQPPRLLIYKISNRFSGVPDRFSGSGAGTDFTLKISRVEAEDVGVYYCMQGTQFPITFGQGTRLEIK
# B3: 125 D10: B-cell culture supernatant well (antibody, V domains shown)
# VH: QVQLQQSGPGLVKPSQTLSLTCAISGDSVSSNNAAWNWIRQSPARGLEWLGRTYYRSKWYNDYVVSVKSRITINPDTSKNQFSLQLNSVTPEDTAVYYCVRATAFDYWGQGTLVTVSS
# VL: AIVLTQTPLSSPVTLGQPASISCRSSQSLVHRDGNTYLSWLQQRPGQPPRLLIYKISNRFSGVPDRFSGSGAGTDFTLKISRVEPDDVGVYYCMHTTQLPWTFGQGTKVEIK
# B4: 250: XenoMax derived human anti-EGFRvIII antibody, from well 138D2 (antibody, V domains shown)
# VH: EGQLLESGGGWVQPGESLRLSCAASGFTFSSYAMSWVRQAPGKGLEWVSAISGSGGSTNYADSVKGRFTISRDNSKNTLYLQVNSLRVEDTAVYYCAGSSGWSEYWGQGTLVTVSS
# VL: DIQMTQSPSSLSASVGDSVTITCRTSQGIRKNLGWYQQKPGKAPKRLIYAASSLQSGVPSRFSGSGSGTEFTLTISRLQPEDFATYYCLQHHSYPLTFGGGTRVEIR
# How the values were obtained:
# [1] = target: purified wild-type EGFR protein (Homo sapiens, UniProt P00533); assay: Western blot, purified wild-type EGFR protein; format: binding
# Procedure: (§1) Specifcially, a subset of the antibodies were tested for their binding of to lysates of tumor cell lines in Western plates of polyacrylamide gel electrophoresis under either non-reducing or reducing conditions. Purifed recombinant protein is also included. […] Sample identifications: • EGFRvIII—the rabbit Fc fusion protein • H1477—H80 human tumor cell line transfected with EGFRvIII expression contruct. These cells express both EGFR and EGFRvIII. • EGFR—purified wild-type EGFR protein • A431—human tumor cell line expressing only wild-type EGFR • A549—human tumor cell line expressing only wild-type EGFR • H80—human tumor cell line expressing only wild-type EGFR
# [2] = target: T1, EGFrVIII peptide sequence (residues 1-20) (Homo sapiens, UniProt P00533, DELINS30-297G); assay: Epitope mapping by SPOTs peptide array and Alanine scanning; format: binding; conditions: SEQ ID 94/98 = EEKKGNYVVT; 95 = LEEKKGNYVVTD; 96 = YVVTDH; 97 = YVVTD; 99 = GNYVVT
# T1 construct: purchased Sigma-Genosys (custom SPOTs array)
# Description: The approach that was used was a custom SPOTs peptide array (Sigma Genosys) to study the molecular interaction of the human anti-EGFrVIII antibodies with their peptide epitope. SPOTs technology is based on the solid-phase synthesis of peptides in a format suitable for the systematic analysis of antibody epitopes. Synthesis of custom arrayed oligopeptides is commerically available from Sigma-Genosys. A peptide array of overlapping oligopeptides derived from the amino-acid sequence of the EGFr VIII variant was ordered from Sigma-Genosys.
# A series of nine 12-mer peptides were synthesized as spots on polypropylene membrane sheets. The peptide array spanned residues 1-20 of the EGFrVIII sequence, representing the deletion of amino acids 6-273 in the extracellular domain of wtEGFr, and the generation of a glycine (G) residue at the junction point. Each consecutive peptide was offset by 1 residue from the previous one, yielding a nested, overlapping library of arrayed oligopeptides. The membrane carrying the 9 peptides was reacted with 9 different anti EGFrVIII antibodies (1 μg/ml). The binding of the mAbs to the membrane-bound peptides was assessed by an enzyme-linked immunosorbent assay using HRP-conjugated secondary antibody followed by enhanced chemiluminescence (ECL).
# In addition, functional epitopes were mapped by combinatorial Alanine scanning. In this process, a combinatorial Alanine-scanning strategy was used to identify amino acids in the EGFrVIII peptide necessary for interaction with anti-EGFRvIII mAbs. To accomplish this, a second set of SPOTs arrays was ordered for Alanine scanning. A panel of variants peptides with alanine substitutions in each of the 12 residues was scanned as above. Spot #1, the unmutated sequence, is a positive control for antibody binding.
# [3] = target: T2, A431 lysate (wild-type EGFR) (Homo sapiens, UniProt P00533); assay: Western blot, A431 lysate; format: binding
# T2 construct: host or cells: A431
# Procedure: as §1
# [4] = target: T3, EGFRvIII rabbit Fc fusion protein (Homo sapiens, UniProt P00533, DELINS30-297G); assay: Western blot, purified EGFRvIII rabbit Fc fusion protein, reducing / non-reducing; format: binding; conditions: native and reduced
# T3 construct: fragment encoding the extracellular domain of EGFRvIII was generated; made in house; host or cells: 293F cells
# Procedure: as §1
# Pep-3 (EGFRvIII epitope) = target: T4, Pep-3 (EGFRvIII epitope) (Homo sapiens, UniProt P00533, DELINS30-297G); assay: Biacore (surface plasmon resonance) binding kinetics to Pep-3
# T4 construct: purchased Anatech, Inc. (San Jose, Calif.); host or cells: custom synthesis
# Procedure: All antigen and mAb samples for Biacore and KinExA analysis were prepared in vacuum-degassed HBS-P buffer (0.01 M HEPES, 0.15 M NaCl, 0.005% surfactant P-20, Biacore Inc., Uppsala, Sweden) containing 100 μg/mL BSA. […] Research grade CM5 biosensor chips were purchased from Biacore, Inc.
# Standard EDC/NHS and carbohydrate coupling was used to covalently immobilize mAbs to a CM5 sensor chip. To minimize mass transport and crowding mAbs were immobilized at levels that gave a maximum antigen binding response (Rmax) of no more than 50-100 RU. A reference flow cell on each chip was activated and blocked with no mAb immobilization to serve as a control.
# All Biacore kinetic experiments were conducted at 23° C. […] Antigen samples were randomly injected over the biosensor surface in triplicate at 100 μL/min. Several buffer blanks were injected intermittently over the course of an experiment for double referencing. Each pep-3 concentration and blank were injected for 90 seconds. Dissociation was followed for 13 to 180 minutes.
# All Biacore sensorgrams were processed using Scrubber software (Version 1.1f, BioLogic Software, Australia). Sensorgrams were first zeroed on the y-axis and then x-aligned at the beginning of the injection. Bulk refractive index changes were removed by subtracting the reference flow cell responses. The average response of all blank injections was subtracted from all analyte and blank sensorgrams to remove systematic artifacts between the experimental and reference flow cells. CLAMP biosensor data analysis software (Version 3.40, BioLogic Software, Australia) was used to determine ka and kd from the processed data sets. Data from all flow cells were globally fit to a 1:1 bimolecular binding model that included a mass transport term. […] The KD was calculated from the quotient kd/ka.
# Two CM5 sensor chips were used in total to immobilize both mAbs. […] Biacore 2000 optical biosensors were used for all studies.
# Next, pep-3 was flowed across the mAb immobilized biosensor surfaces. The starting concentration of pep-3 was 1.25 μM, which was followed with eight two-fold serial dilutions in randomized triplicate injections. Blank injections were run every sixth sample throughout the injection series for double referencing purposes.
# Finally, the biosensor data was processed with Scrubber and the data was fit to curves utilizing Clamp with a 1:1 interaction model with a term included for mass transport. […]
# [5] = target: T5, EGFRvIII receptor on NR6 M cells (Homo sapiens, UniProt P00533, DELINS30-297G); assay: Internalization assay of B-cell culture supernatants (FMAT, glutathione); format: cell-based
# T5 construct: expressed in transfected cells; host or cells: NR6 murine fibroblasts (NR6 M)
# Procedure: The top 60 native binding B cell culture supernatants were further assayed for their ability to internalize the receptor. NR6 M cells were seeded at 8000 cells/well into 96 well FMAT plates and incubated overnight. Media was removed and 10-15 μl B-Cell culture supernatant in a total volume of 30 μl media, in duplicate was added. Next, 15 μl of secondary antibody (SS Alexa 647 anti-human IgG Fab at 1.5 μg/ml final concentration) was added and the mixture was incubated on ice for 1 hr. An irrelevant B-Cell Culture supernatant was used to see the effect of the culture media. Human anti-EGFRvIII mAb 13.2.1 was used as a positive control starting at 1 μg/ml (final concentration) and negative control was PK 16.3.1 (human anti-KLH IgG2 antibody) at the same concentration. After incubation, the cells were washed with cold PBS, 50 μl media was added to all of the wells, one of the duplicates were incubated at 37° C. for 30 mins while the other duplicate remained on ice. After the incubations media was removed, 100 ul of cold 50 mM glutathione was added to the set incubated at 37° C. and 100 μl of cold media added to the other set, both sets were then left on ice for 1 hr. The cells were then washed with 100 μl cold PBS and then fixed with 1% paraformaldehyde and read in FMAT. The results were expressed as % intermalized, calculated as total fluorescence in the presence of glutathione/total fluorescence in the absence of glutathione X 100.
# [6] = parentheses 95% confidence interval
molecule,measurement,setting,value
B1,Binding to purified wildtype EGFr in Western blots,[1],cross reacted
same,Epitope mapped by SPOTs,[2],(SEQ ID NO: 97)
same,"Binding in Western blot of A431 lysate, reduced sample",[3],no signal
same,Binding in Western blot of lysate of A431 cells,[3],cross reacted
same,"Binding in Western blot of A431 lysate, non-reduced sample",[3]; band of the size of wild-type EGFR,binds strongly
same,Binding to purified EGFRvIII in Western blots,[4],binds to both native and reduced
B2,Epitope mapped by SPOTs,[2],(SEQ ID NO: 96)
same,ka,Pep-3 (EGFRvIII epitope); curve fitting,1.491*10^5
same,kd,Pep-3 (EGFRvIII epitope); curve fitting,9.927*10^−3
same,Ka,Pep-3 (EGFRvIII epitope); [6],149000 M⁻¹ s⁻¹
same,"dissociation rate constant (kd, koff)",Pep-3 (EGFRvIII epitope); [6],0.0099 s⁻¹
B3,With glutathione FL1 × count,"[5]; 37° C. for 30 mins, then 50 mM glutathione",1236
same,"% internalized, (glut+/glut−) × 100","[5]; NR6 M cells, 37° C. 30 mins",52.8%
same,No glutathione FL1 × count,"[5]; set kept on ice, no glutathione",2342
B4,Epitope mapped by SPOTs,[2],(SEQ ID NO: 95)
